Results from patent publication US5134121A, “Nerve growth factor peptides” (Regents of the University of California, priority 1991, dated 1992).
Where a SMILES comes first, the peptide text is derived from it.

B1: NGF: purified from male mouse submaxillary gland; β-NGF is a dimer of two identical 118 amino acid chains (protein, UniProt P01139 122-241, looked up)
Beta-nerve growth factor: SSTHPVFHMGEFSVCDSVSVWVGDKTTATDIKGKEVTVLAEVNINNSVFRQYFFETKCRASNPVESGCRGIDSKHWNSYCTTTHTFVKALTTDEKQAAWRFIRIDTACVCVLSRKATRRG
modifications: beta-NGF
notes: purified from male mouse submaxillary gland; β-NGF is a dimer of two identical 118 amino acid chains
B2: NGF denatured by reduction and carbamoylmethylation: NGF (30 μg) denatured by reduction and carbamoylmethylation, used as control (protein, UniProt P01139 122-241, looked up)
Beta-nerve growth factor: SSTHPVFHMGEFSVCDSVSVWVGDKTTATDIKGKEVTVLAEVNINNSVFRQYFFETKCRASNPVESGCRGIDSKHWNSYCTTTHTFVKALTTDEKQAAWRFIRIDTACVCVLSRKATRRG
modifications: beta-NGF reduced and carbamoylmethylated (denatured)
notes: NGF (30 μg) denatured by reduction and carbamoylmethylation, used as control

Key:
[1] = Resistance to proteolysis during cell culture; format: in vitro ADME; conditions: 2.0 μmole/ml in culture medium with cells and 100 pg/ml NGF, 24 hr, HPLC
Description: The resistance of peptide C5 to proteolytic cleavage during cell culture was assessed. Quadruplicate wells were prepared each containing 2.0 μmole/ml of peptide in culture medium, 100 pg/ml NGF and cells as described above. After 24 hr in culture, 320 ul (4 wells×80 ul) of culture medium were collected. Fresh culture medium containing 2.0 μmole/ml of peptide was also prepared. Both samples of peptide-containing medium were filtered through a Centricon membrane (Amicon, Bedford) with a molecular weight cutoff of 10,000. 250 μl of filtrate was loaded onto a C18 uBondapak analytic HPLC column and run under the same conditions described above for peptide purification. The quantity of peptides in fresh compared to post-culture medium was determined by integration of their absorbance peaks. After 24 hr in culture, more than 80-85% of the initial quantity of peptide C5 was recovered..

[2] = system: embryologic day 10 dorsal root ganglia neurons; assay: Nonspecific toxicity: NGF-independent neurite outgrowth in response to CNTF; format: cell-based, chick; conditions: up to 2.6 μmoles/ml, FIG. 3
Description: Potential nonspecific toxicity of peptide C5 (KGKE) was investigated with embryologic day 10 dorsal root ganglia neurons which also extend neurites in the presence of ciliary neurotrophic factor (CNTF) The effect of peptide C5 on NGF-independent neurite outgrowth was assessed.

[3] = system: PrP; conditions: hamster, in vivo
[4] = system: β-PP mRNA; assay: β-protein precursor mRNA levels after NGF injection in neonatal hamsters; format: in vivo, hamster
[5] = system: ChAT activity; assay: ChAT activity in brain regions after intraventricular NGF in neonatal hamsters; format: in vivo, hamster; conditions: for increase in septal ChAT activity relative to vehicle-injected animals: single 30 μg injection PD 7, sacrifice PD 9
Description: The birth of hamster litters was recorded as day zero. Hamsters were sacrificed at various postnatal ages and several brain regions were quickly dissected. The regions sampled included septum (basal forebrain), caudate-putamen, thalamus, hippocampus, frontolateral neocortex, and brainstem. Dissections were performed as described (Johnston et al, (1987) Neurochem Res 12:985-994). Subiculum was included with hippocampus. Caudal midbrain plus pons constituted the brainstem. For prenatal determinations,a timed-pregnancy animal was anesthetized with Nembutal (15 mg, i.p.) and individual embryos were removed and dissected. Whole forebrain was taken in place of frontolateral neocortex in prenatal animals. ChAT activity was determined in selected tissues as described (Mobley et al, (1985) Science 229:284-287).
NGF was prepared by ion-exchange chromatography and characterized as described in the first example. In experiments in which multiple injections were given, NGF (30 μg) was administered intraventricularly (Mobley et al, (1985) supra) on postnatal day (PD) 3, 5 and 7 and sacrifice was on PD 9. Vehicle-injected animals served as controls. In experiments in which a single injection was given, NGF (30 μg) was administered intraventricularly on PD 7 and animals were sacrificed on PD 9. Controls included animals treated with NGF (30 μg) denatured by reduction and carbamoylmethylation (Morris et al, (1971) Neurobiology 1:64-67), or injection vehicle alone.

[6] = system: dissociated embryonic chick dorsal root ganglia neurons; assay: NGF bioassay: support of neurite outgrowth/neuronal survival without NGF (agonist activity); format: cell-based; conditions: 24 hr culture
Excerpt: After synthesis, the peptides of the present invention may then be assayed to determine their activity in the NGF bioassay using dissociated embryonic chick dorsal root ganglia neurons according to published procedures, such as, for example, Riopelle et al, (1981) J Neurobiol 12:175-186 or Varon et al (1981) Dev Brain Res 1:73-87. […] If the peptide of interest is capable of inhibiting neuronal attachment, survival or neurite outgrowth in the presence of NGF, the peptide is defined as an antagonist. Similarly, if the peptide is capable of supporting neuronal attachment, survival or neurite outgrowth in the absence of NGF, it is defined as an agonist.
NGF bioassays using dissociated embryonic chick dorsal root ganglia neurons have been described (Varon et al, (1981) Dev Brain Res 1:73-87); Riopelle et al, (1981) J Neurobiol 12:175-186). Approximately 30 dorsal root ganglia were dissected from each developmental day 8 chick embryo. […] During this incubation, non-neurons more readily attach to the substratum; therefore, the resulting supernatant contained a relatively enriched neuronal population (80-90% neurons). […]
The results obtained were similar in each experiment; FIG. 1A represents the data obtained from the second experiment. […] Neurite outgrowth was assessed by phase contrast microscopy. The number of neurite-bearing cells in a fixed area of the well was counted. […]

[7] = system: PrP mRNA; conditions: hamster, in vivo

| Molecule | initial quantity of peptide recovered after culture [1] | effect on number of neurons bearing neurites in response to CNTF [2] | increase in PrP in septum (Western blot) [3] | increase in β-PP mRNA levels relative to vehicle-injected animals ([4]; single treatment on PD7, septum) | increase in β-PP in thalamus ([4]; single treatment, FIG. 6) | increase in septal ChAT activity ([5]; 30 μg intraventricularly PD 3, 5, 7, sacrifice PD 9, FIG. 5A) | increase in septal ChAT activity relative to vehicle-injected animals [5] | septal ChAT activity (mean±SEM) ([5]; single 30 μg injection PD 7, sacrifice PD 9, n=4) | ChAT activity in caudate-putamen ([5]; single injection, n=3) | increase in ChAT activity in caudate-putamen ([5]; single injection, neonatal hamsters) | concentration giving maximum neurite outgrowth [6] | effect on PrP mRNA levels in hippocampus [7] | effect on PrP mRNA levels in thalamus [7] | increase in PrP mRNA in caudate-putamen relative to vehicle-injected animals [7] | increase in septal PrP mRNA levels [7] | increase in septal PrP mRNA relative to controls [7] |
| --- | --- | --- | --- | --- | --- | --- | --- | --- | --- | --- | --- | --- | --- | --- | --- | --- |
| NCCCC[C@H](NC(=O)CNC(=O)[C@@H](N)CCCCN)C(=O)N[C@@H](CCC(=O)O)C(N)=O [C5, KGKE-NH2] (H-KGKE-NH2) | 80-85% | no detectable effect |  |  |  |  |  |  |  |  |  |  |  |  |  |  |
| B1 |  |  | 3.3 fold | 4 fold | no increase | increased almost two-fold | 100% | 44.0±5.0 nmol acetylcholine (ACh) formed/hr/mg protein | 92.4±6.3 nmol acetylcholine (ACh) forme | approximately 65% | approximately 800 pg/ml | no effect | no effect | 70% | ~9 fold | approximately 10 fold |
| B2 |  |  |  |  |  |  | No increase |  |  |  |  |  |  |  | No increase |  |
